Broadly, the Kd is the constant that tells how readily two partners part at equilibrium. A high value points to weaker binding.

The target of test [1] is Im7-D2 (C-terminal domain of D2 fused to Im7) (Thermosynechococcus elongatus, UniProt Q8CM25 289-352). The test can be described thus: SPR. For orientation: SPR reads the build-up and loss of mass on a sensor chip optically.
The target in test [2] is Im7-D1a (D1 a-loop fused to Im7) (Thermosynechococcus elongatus, UniProt P0A444 54-113). The test can be described thus: SPR.
Chain of Im7-D1a (D1 a-loop fused to Im7) (P0A444 54-113): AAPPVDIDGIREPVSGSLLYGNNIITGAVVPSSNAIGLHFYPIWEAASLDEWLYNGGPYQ

Chain of Im7-D2 (C-terminal domain of D2 fused to Im7) (Q8CM25 289-352): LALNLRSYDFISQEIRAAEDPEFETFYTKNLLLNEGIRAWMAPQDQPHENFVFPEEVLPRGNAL

B1: PsbO (natural protein)
chain: AKQTLTYDDIVGTGLANKCPTLDDTARGAYPIDSSQTYRIARLCLQPTTFLVKEEPKNKRQEAEFVPTKLVTRETTSLDQIQGELKVNSDGSLTFVEEDGIDFQPVTVQMAGGERIPLLFTVKNLVASTQPNVTSITTSTDFKGEFNVPSYRTANFLDPKGRGLASGYDSAIALPQAKEEELARANVKRFSLTKGQISLNVAKVDGRTGEIAGTFESEQLSDDDMGAHEPHEVKIQGVFYASIEPA
As to B1, the values for the Kd in test [1] and in test [2] were approximately 41 µM and approximately 60 µM, respectively.

Values taken from paper PMC4220643 (2014).
